In patent US20110223107A1 one finds OD450 data, which are given here for 7 molecules.

Assay [1] addresses Fc-0447 1-60 (human) (UniProt Q9UBP8). Put plainly: ELISA. Background: An ELISA detects its analyte on a solid surface through an enzyme-linked reagent.
Assay [2] has as its target T1, Fc-fused truncated mutant of KAAG1 spanning amino acids 1-35 (human).
T1 sequence: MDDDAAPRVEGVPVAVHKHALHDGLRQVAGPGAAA
Kind of assay: ELISA.

Changes are numbered by the printed parent chain.

B1: 3D3 mouse anti-KAAG1 Fab (Fab, V domains shown)
VH: EVQLQQSVAELVRPGASVTLSCKASGYIFTDYEIHWVKQTPVHGLEWIGVIDPETGNTAFNQKFKGKATLTADISSSTAYMELSSLTSEDSAVYYCMGYSDYWGQGTTLTVSS
VL: DIVMTQSPSSLAVSIGQKVTMNCKSSQSLLNSNFQKNFLAWYQQKPGQSPKLLIYFASTRESSIPDRFIGSGSGTDFTLTISSVQAEDLADYFCQQHYSTPLTFGAGTKLELK
The molecule B1 returned an OD450 in assay [1] of 1.33.

B2: G12 (Fab, V domains shown)
VH: B1 VH with L20V, V42A
VL: DIVMTQSPKFMSTSVGDRVSITCKASQDVGTAVAWYQQKPGQSPELLIYWTSTRHTGVPDRFSGSGSGTDFTLTISSVQAEDLADYFCQQHYSIPLTFGAGTKLELR
For the molecule B2, the OD450 in assay [1] was 1.52.

B3: Fab of well C2 (Omniclonal AL0003Z1 plate) (Fab, V domains shown)
VH: DVQLQESGPDLVKPSQSLSLTCTVTGFSITSGYGWHWIRQFPGNKLEWMGYISFNGDSNYNPSLKSRISITRDTSKNQFFLQLNSVTSEDTATYYCASSYDGLFAYWGQGPLVTVSA
VL: DIQMTQSPSSMYASLGERVTLTCKASQDIHNYLNWFQQKPGKSPKTLIHRANRLVAGVPSRFSGSGSGQDYSLTISSLEYEDLGIYYCLQYDAFPLTFGAGTKLELK
B3: in assay [1], the OD450 came to 0.48.

B4: 3C4 mouse anti-KAAG1 Fab (Fab, V domains shown)
VH: B3 VH with D1E, S53N, F54Y, N55D, D57H, S58N, N59D, R72Q, S88T, P111T
VL: DIVMSQSPSSMYASLGERVTITCKASQDIHNFLNWFQQKPGKSPKTLIFRANRLVDGVPSRFSGSGSGQDYSLTISSLEFEDLGIYSCLQYDEIPLTFGAGTKLELR
B4 yielded an OD450 in assay [1] of 0.57.

B5: Fab of well D1 (Omniclonal AL0003Z1 plate) (Fab, V domains shown)
VH: B3 VH with D1E, N44D, S58Y, N84S, S88T, P111T
VL: B3 VL with Q3K, L21I, N31T, K45E, H49Y, A56D, L83M, A93E
B5 came in with an OD450 in assay [1] of 0.27.

B6: A9 (Fab, V domains shown)
VH: QVQVQQPGAELVRPGASVTLSCKASGYIFTDYEVHWVRQRPVHGLEWIGVIDPETGDTAYNQKFKGKATLTADKSSSTAYMELSSLTAEDSAVYYCIGYADYWGQGTTLTVSS
VL: DIVMTQSPSSLAMSLGQKVTMSCKSSQSLLNSNNQLNYLAWYQQKPGQSPKLLVYFASTRKSGVPDRFIGSGSGTDFTLTITSVQAEDLADYFCQQHFNTPLTFGAGTKLELK
B6 displayed an OD450 in assay [1] of 2.29.

B7: Fab of well E10 (Omniclonal AL0003Z1 plate) (Fab, V domains shown)
VH: EVQLQQSGPELVKPGASVKISCKASGDTFTDYYMNWVKQSHGKSLEWIGDINPNYGGITYNQKFKGKATLTVDTSSSTAYMELRGLTSEDSAVYYCQAYYRNSDYWGQGTTLTVSS
VL: DIVMTQAAPSVPVTPGESVSISCRSSKSLLHSNGNTYLYWFLQRPGQSPQLLIYRMSNLASGVPDRFSGSGSGTAFTLRISRVEAEDVGVYYCMQHLEYPYTFGGGTKLEIK
With B7, the OD450 in assay [2] amounted to 0.33.
